Assay results reported in the Human Domainome abundance scans (Beltran et al. 2025).
± gives the uncertainty stated by the source.

B1: Transcription intermediary factor 1-beta, residues 620 to 671; numbered along this chain, Q13263 (parent)
chain: TLDDSATICRVCQKPGDLVMCNQCEFCFHLDCHLPALQDVPGEEWSCSLCHV

Variants of: B1
Test: abundance fitness (aPCA) (normalised: wild type 0, dead -1); higher = more abundant; growth selection in yeast, the domain comes from the species named
Conditions: Homo sapiens

Variant | abundance fitness
V40I | -0.401 ± 0.23
V40P | 0.264 ± 0.19
V40M | -0.213 ± 0.22
V40N | -0.218 ± 0.2
V40G | -0.301 ± 0.1
V40S | -0.121 ± 0.11
C47T | -0.565 ± 0.11
C47Y | -0.736 ± 0.17
C47P | -0.484 ± 0.12
C47Q | -0.636 ± 0.14
C47K | -0.466 ± 0.11
C47S | -0.343 ± 0.083
C47W | -0.951 ± 0.11
C47H | -0.572 ± 0.14
C47M | -0.794 ± 0.12
C47E | -0.295 ± 0.088
C47R | -0.552 ± 0.079
C47D | -0.456 ± 0.12
C47G | -0.33 ± 0.075
C47N | -0.382 ± 0.12
C47I | -1.05 ± 0.22
C47L | -0.864 ± 0.1

Variant | abundance fitness
C47V | -0.807 ± 0.089
C50Y | -1.03 ± 0.34
C50T | -0.386 ± 0.13
C50A | -0.112 ± 0.096
C50D | -0.183 ± 0.17
C50Q | -0.329 ± 0.16
C50G | -0.278 ± 0.098
C50S | -0.462 ± 0.12
C50R | -0.214 ± 0.11
C50M | -0.65 ± 0.19
C50P | 0.037 ± 0.15
C50F | -0.315 ± 0.18
C50V | -0.513 ± 0.1
C50L | -0.797 ± 0.11
C50E | -0.232 ± 0.12
C50K | -0.1 ± 0.16
C50N | -0.505 ± 0.35
G42Q | -0.028 ± 0.22
G42E | -0.139 ± 0.15
G42W | -0.302 ± 0.14
G42V | -0.107 ± 0.099
G42M | -0.091 ± 0.14

Variant | abundance fitness
G42H | 0.083 ± 0.24
G42L | -0.086 ± 0.092
G42A | 0.014 ± 0.085
G42C | -0.222 ± 0.16
G42R | -0.074 ± 0.099
G42T | 0.174 ± 0.12
G42P | -0.085 ± 0.13
G42K | 0.095 ± 0.16
G42Y | -0.421 ± 0.21
G42F | -0.161 ± 0.22
G42S | -0.265 ± 0.13
L49S | 0.303 ± 0.08
L49Q | 0.263 ± 0.12
L49F | 0.192 ± 0.12
L49P | 0.1 ± 0.098
L49R | 0.219 ± 0.075
L49T | 0.301 ± 0.086
L49N | 0.46 ± 0.13
L49A | 0.205 ± 0.076
L49V | -0.09 ± 0.082
L49I | -0.045 ± 0.14
L49C | -0.282 ± 0.14

Variant | abundance fitness
L49M | 0 ± 0.092
L49D | 0.277 ± 0.1
L49K | 0.27 ± 0.11
L49G | 0.334 ± 0.066
L49W | 0.066 ± 0.076
L49E | 0.389 ± 0.092
L49H | 0.496 ± 0.15
L49Y | 0.131 ± 0.12
P41R | -0.26 ± 0.096
P41D | -0.245 ± 0.21
P41M | -0.303 ± 0.16
P41C | -0.242 ± 0.14
P41K | -0.645 ± 0.25
P41E | -0.073 ± 0.14
P41N | -0.112 ± 0.17
P41V | -0.254 ± 0.11
P41Q | -0.204 ± 0.17
P41F | -0.439 ± 0.15
P41G | -0.202 ± 0.11
P41H | -0.513 ± 0.18
P41W | -0.258 ± 0.2
P41S | -0.374 ± 0.14

Variant | abundance fitness
P41A | -0.368 ± 0.13
P41I | -0.302 ± 0.18
P41T | -0.619 ± 0.22
V52A | 0.197 ± 0.14
V52D | -0.267 ± 0.23
V52R | 0.137 ± 0.15
V52H | -0.479 ± 0.44
V52L | -0.369 ± 0.17
V52P | 0.041 ± 0.17
V52I | -0.354 ± 0.13
V52Y | -0.284 ± 0.39
V52S | 0.075 ± 0.27
V52G | -0.32 ± 0.19
V52C | -0.289 ± 0.31
V52T | -0.11 ± 0.21
V52F | -0.18 ± 0.19
H51R | 0.081 ± 0.11
H51D | 0.041 ± 0.11
H51S | 0.109 ± 0.11
H51W | -0.345 ± 0.19
H51M | 0.021 ± 0.13
H51I | -0.264 ± 0.18

Variant | abundance fitness
H51V | -0.023 ± 0.094
H51F | -0.452 ± 0.24
H51Y | -0.553 ± 0.41
H51L | -0.063 ± 0.12
H51G | -0.302 ± 0.096
H51E | 0.107 ± 0.15
H51K | -0.415 ± 0.17
H51C | -0.281 ± 0.22
H51P | 0.248 ± 0.17
H51N | -0.528 ± 0.21
H51Q | 0.148 ± 0.16
H51T | 0.31 ± 0.17
D39T | -0.089 ± 0.19
D39Q | -0.184 ± 0.17
D39V | 0.026 ± 0.099
D39Y | -0.206 ± 0.17
D39R | -0.222 ± 0.1
D39W | -0.545 ± 0.14
D39S | -0.227 ± 0.12
D39M | -0.24 ± 0.14
D39N | -0.551 ± 0.27
